Test results published in PMC4361764, “TatBC-Independent TatA/Tat Substrate Interactions Contribute to Transport Efficiency” (PLoS ONE, 2015).

Molecular target: the molecule itself
Test: SEC; TatA-strep purified from the soluble fraction (Strep-Tactin), Superose 6, 10 mM Hepes pH 8.0, 150 mM NaCl, no detergent; Western blot of elution fractions

B1: Strep-tagged TatA from Escherichia coli (natural protein, UniProt P69428 1-89, looked up)
chain: MGGISIWQLLIIAVIVVLLFGTKKLGSIGSDLGASIKGFKKAMSDDEPKQDKTSQDADFTAKTIADKQADTNQEQAKTEDAKRHDKEQV
notes: TatA of Escherichia coli; The soluble form is a large association of many protomers; also called TatA-strep; soluble TatA-strep; source: E. coli DADE tatA-strep-tatBC (single-copy, wild-type level): in crude soluble extract; or purified from the soluble fraction (Strep-Tactin, Superose 6); not shown: Strep-tag, C-terminal, kept
binding result: binds
